Literature values, collected in article PMC8175380.

How the values were obtained:
[1] = molecular target: EED (Homo sapiens) (UniProt O75530); test: ITC
[2] = molecular target: MDM2 (Homo sapiens) (UniProt Q00987); test: SPR
Sequence of MDM2 (Homo sapiens) (Q00987 whole entry): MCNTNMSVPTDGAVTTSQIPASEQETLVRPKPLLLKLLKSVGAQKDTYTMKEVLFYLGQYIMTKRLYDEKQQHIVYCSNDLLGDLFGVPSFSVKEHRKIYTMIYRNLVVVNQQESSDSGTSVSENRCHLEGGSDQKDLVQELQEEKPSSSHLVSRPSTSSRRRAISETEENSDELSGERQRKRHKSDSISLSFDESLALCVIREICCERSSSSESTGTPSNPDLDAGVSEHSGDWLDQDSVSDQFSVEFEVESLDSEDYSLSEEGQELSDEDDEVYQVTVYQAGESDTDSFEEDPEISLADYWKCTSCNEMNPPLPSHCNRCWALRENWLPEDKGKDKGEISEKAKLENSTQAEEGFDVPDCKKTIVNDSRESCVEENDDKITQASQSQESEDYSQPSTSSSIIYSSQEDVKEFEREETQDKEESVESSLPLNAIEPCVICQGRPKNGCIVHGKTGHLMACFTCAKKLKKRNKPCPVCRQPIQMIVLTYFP

Sequence of EZH2 peptide aptamer (Q15910 whole entry): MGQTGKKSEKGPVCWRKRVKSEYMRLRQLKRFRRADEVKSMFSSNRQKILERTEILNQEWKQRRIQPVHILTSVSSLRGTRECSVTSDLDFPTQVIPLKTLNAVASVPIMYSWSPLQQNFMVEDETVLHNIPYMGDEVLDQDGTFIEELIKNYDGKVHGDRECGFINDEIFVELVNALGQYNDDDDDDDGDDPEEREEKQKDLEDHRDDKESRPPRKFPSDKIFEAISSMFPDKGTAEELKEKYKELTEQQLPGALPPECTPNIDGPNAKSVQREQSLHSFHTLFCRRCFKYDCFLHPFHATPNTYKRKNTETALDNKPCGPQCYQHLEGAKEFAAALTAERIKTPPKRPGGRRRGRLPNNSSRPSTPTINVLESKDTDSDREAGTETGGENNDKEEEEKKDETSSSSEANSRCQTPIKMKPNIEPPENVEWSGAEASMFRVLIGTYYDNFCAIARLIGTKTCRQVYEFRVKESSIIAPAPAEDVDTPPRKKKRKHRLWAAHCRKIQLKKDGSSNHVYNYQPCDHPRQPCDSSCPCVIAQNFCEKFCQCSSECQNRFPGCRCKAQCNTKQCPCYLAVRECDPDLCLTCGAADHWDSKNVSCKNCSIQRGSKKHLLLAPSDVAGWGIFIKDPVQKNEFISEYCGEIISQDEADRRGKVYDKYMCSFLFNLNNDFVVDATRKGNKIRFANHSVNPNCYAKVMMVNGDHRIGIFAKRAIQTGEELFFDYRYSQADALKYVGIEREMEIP
Sequence of EED (Homo sapiens) (O75530 2-441): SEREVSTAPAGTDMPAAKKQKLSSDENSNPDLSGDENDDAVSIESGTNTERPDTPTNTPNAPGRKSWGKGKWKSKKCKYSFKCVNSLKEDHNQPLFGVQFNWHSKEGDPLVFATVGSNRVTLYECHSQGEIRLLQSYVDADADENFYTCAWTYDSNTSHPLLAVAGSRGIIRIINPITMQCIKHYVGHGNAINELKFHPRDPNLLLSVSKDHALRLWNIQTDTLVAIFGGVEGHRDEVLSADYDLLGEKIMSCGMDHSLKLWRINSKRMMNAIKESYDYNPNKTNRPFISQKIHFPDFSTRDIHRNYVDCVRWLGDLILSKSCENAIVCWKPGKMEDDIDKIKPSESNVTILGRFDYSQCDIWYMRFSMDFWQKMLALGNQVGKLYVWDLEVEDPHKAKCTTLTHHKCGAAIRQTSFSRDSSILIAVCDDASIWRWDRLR

| Kd [1] | Kd [2] | Substance |
| --- | --- | --- |
| 380 nM |  | EZH2 peptide aptamer (from UniProt Q15910) |
|  | 140 nM | p53 peptide aptamer (from UniProt P04637) |
